Assay results reported in PMC10258192.

Target: T1, mEGFP-SRSF2, Q01130
T1 chain: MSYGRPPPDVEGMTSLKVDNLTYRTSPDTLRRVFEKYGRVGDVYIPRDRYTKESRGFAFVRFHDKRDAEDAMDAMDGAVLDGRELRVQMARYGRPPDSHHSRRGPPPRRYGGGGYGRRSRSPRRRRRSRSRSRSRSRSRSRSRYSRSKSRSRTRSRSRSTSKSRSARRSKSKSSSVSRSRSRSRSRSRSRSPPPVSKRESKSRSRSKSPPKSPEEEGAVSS
Experiment: SEC-MALS; purified protein, static light scattering after the molecular sieve; before addition of PEG8000
Settings: remark: other sources report otherwise

B1: mEGFP-SRSF2, Q01130 1-221 (natural protein)
chain: MSYGRPPPDVEGMTSLKVDNLTYRTSPDTLRRVFEKYGRVGDVYIPRDRYTKESRGFAFVRFHDKRDAEDAMDAMDGAVLDGRELRVQMARYGRPPDSHHSRRGPPPRRYGGGGYGRRSRSPRRRRRSRSRSRSRSRSRSRSRYSRSKSRSRTRSRSRSTSKSRSARRSKSKSSSVSRSRSRSRSRSRSRSPPPVSKRESKSRSRSKSPPKSPEEEGAVSS
Work on B1 yielded a stoichiometry N of 5000.
